# Where two headings read alike, the source gives them in different places.
# How the values were obtained:
# [1] = target: BiP-His6 (WT-BiP, aa 19-637) (human) (UniProt P11021); assay: BLI
# [2] = target: BiP-His6 (WT-BiP, aa 19-637) (human) (UniProt P11021); assay: BLI; remark: listed apart in the source
# BiP-His6 (WT-BiP, aa 19-637) (human), sequence (P11021 19-637): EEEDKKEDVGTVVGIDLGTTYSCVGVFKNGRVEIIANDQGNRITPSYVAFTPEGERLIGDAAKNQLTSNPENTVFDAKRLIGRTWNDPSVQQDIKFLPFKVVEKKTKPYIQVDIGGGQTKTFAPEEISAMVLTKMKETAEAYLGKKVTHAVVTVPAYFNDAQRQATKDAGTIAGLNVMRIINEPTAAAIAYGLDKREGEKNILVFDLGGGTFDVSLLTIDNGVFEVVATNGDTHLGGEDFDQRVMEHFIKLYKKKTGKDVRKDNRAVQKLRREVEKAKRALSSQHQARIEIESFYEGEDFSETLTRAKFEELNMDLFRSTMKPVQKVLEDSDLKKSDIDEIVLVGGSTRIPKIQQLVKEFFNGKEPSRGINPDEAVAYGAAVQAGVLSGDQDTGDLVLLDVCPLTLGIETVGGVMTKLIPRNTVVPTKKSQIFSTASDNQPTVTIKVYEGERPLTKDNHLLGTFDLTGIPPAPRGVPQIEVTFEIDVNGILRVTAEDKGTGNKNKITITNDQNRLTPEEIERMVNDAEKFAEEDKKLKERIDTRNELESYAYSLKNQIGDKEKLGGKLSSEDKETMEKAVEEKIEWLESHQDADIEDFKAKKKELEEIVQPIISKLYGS
substance,measurement,setting,value
E234G-HYPE (aa 102-458) (from UniProt Q9BVA6) (enzyme),Kd,[1],18 µM
same,Kd,[2],10.2 µM

# Source: doi:10.1101/494930
